The target in one data set is full-length OGG1 (EMSA) (human, UniProt O15527 1-345). In words: EMSA; 2.5 uM DNA; all DNA shifted at 5 uM protein or above; two super-shift bands; EMSA: 40 mM HEPES pH 7.4, 50 mM NaCl, 5 mM bME, 5% glycerol, 30 min on ice, 4-20% native gel; cryo-EM OGG1-DNA assembly: 20 mM HEPES pH 7.4, 100 mM NaCl, 5 mM bME, on ice. Particulars: protein: recombinant; blunt. For orientation: A gel shift assay detects complexes by their altered migration in electrophoresis.

In a further data set the target is OGG1(K249Q) (human, UniProt O15527 1-345, K249Q). In words: cryo-EM; protein:DNA 1.5:1; 8-oxoG flipped out, DNA bent 65 degrees; 3.6 A; EMSA: 40 mM HEPES pH 7.4, 50 mM NaCl, 5 mM bME, 5% glycerol, 30 min on ice, 4-20% native gel; cryo-EM OGG1-DNA assembly: 20 mM HEPES pH 7.4, 100 mM NaCl, 5 mM bME, on ice. Conditions: protein: recombinant; tags: N-terminal 6His; blunt.

The values below come from publication PMC11438860, “Human 8-oxoguanine glycosylase OGG1 binds nucleosome at the dsDNA ends and the super-helical locations”.

OGG1(K249Q), sequence (O15527 whole entry K249Q): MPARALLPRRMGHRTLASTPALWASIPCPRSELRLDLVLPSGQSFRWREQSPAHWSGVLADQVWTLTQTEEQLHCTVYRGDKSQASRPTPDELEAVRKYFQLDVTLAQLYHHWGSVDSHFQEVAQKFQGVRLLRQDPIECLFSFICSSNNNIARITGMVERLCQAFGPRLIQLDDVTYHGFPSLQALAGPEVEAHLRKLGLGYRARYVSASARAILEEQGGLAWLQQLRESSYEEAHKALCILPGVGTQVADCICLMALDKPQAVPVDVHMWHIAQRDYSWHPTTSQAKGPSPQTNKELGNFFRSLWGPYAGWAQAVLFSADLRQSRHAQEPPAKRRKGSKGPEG
full-length OGG1 (EMSA), sequence (O15527 whole entry): as the sequence (O15527 whole entry K249Q) above, with Q249K counted along it

B1: 35-bp 8-oxoG DNA (dsDNA)
DNA 1: ATGCCTCGCAGAATCCCGCTGCCGAGGCCGCTCAA
DNA 2: TTGAGCGGCCTCGGCAGCGGGATTCTGCGAGGCAT
modifications: 8-oxo-dG at position 18 of strand 1 (text numbers it 17), within unmethylated Cp-8-oxoG
As for B1, the binding result with full-length OGG1 (EMSA) and with OGG1(K249Q) was “binds” in each case.
